The source of these data is the nanobody polyreactivity screen of Harvey et al. (2022).

A short description of this data set: yeast display, Sf9 membrane polyspecificity reagent, FACS + sequencing; frameworks hold sequencing errors. In a few lines: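 Synthetic nanobody libraries on Saccharomyces cerevisiae BJ5465 were galactose-induced for 36–48 hours, stained 1 hour at 4 °C with 10% biotinylated, detergent-solubilized Sf9 membrane reagent and enriched on streptavidin microbeads. FACS then separated cells into low and high (top ~1%) gates by anti-HA (expression) and streptavidin (reagent binding) fluorescence. Genes were colony-PCR amplified, MiSeq 2 × 250 sequenced and CDR-length filtered. A clone's polyreactivity label is that of its gate of origin.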
On to “QVQLVESGGGLVQAGGSLRLSCAASGSIFLIYAMGWYRQAPGKERELVAAISSGGSTYYADSVKGGFTISRDNAKNTVYLQMNSLKPEDTAVYYCATYSTSVGYHLYYWGQGTQVTVSS”, for which the “polyreactivity (PSR sort gate)” value was “low polyreactivity”.

On to “QVQLVESGGGLVQAGGSLRLSCAASGSIFLKNVMGWYRQAPGKERELVAAITARGGATYYADSVKGRFTISRDNAKKTVYLQLNSQKPEDTAVYYCAARARVVPSLGNPRMDYWGQGTQVTVSS”, for which the “polyreactivity (PSR sort gate)” value is “high polyreactivity”.

With “QVQLVESGGGLVQAGGSLRLSCAASGSIFLKYDMGWYRQAPGKERELVAAISRGGDTNYADSVKGLFTISRDNAKNCVYLQMNSLKPEDTAVYDCAARPGLYFTRRGRYYLGQGTQVTVSS”, the “polyreactivity (PSR sort gate)” value is “high polyreactivity”.

In the case of “QVQLVESGGGLVQAGGSLRLSCAASGSIFLLYAMGWYRQAPGKERELVAAISTRDGSTYYADSVKGRFTLSRDNAKNTVYLQMNSLKPEDTAVYYCATLYSYNYWGQGTQVTVSS”, the “polyreactivity (PSR sort gate)” value is listed as “high polyreactivity”.

Take “QVQLVESGGGLVQAGGSLRLSCAASGSIFLLYAMGWYRQAPGKERELVARISWSGDNTRYADSVKGRFTISRDNAKNTVFLQMNSLKPEDTAVYYCNAYYFYGQWKGYDYWGQGTQVTVSS”: the “polyreactivity (PSR sort gate)” value is “low polyreactivity”.

As for “QVQLVESGGGLVQAGGSLRLSCAASGSIFLLYAMGWYRQAPGKERELVARISWSGDNTRYADSVKGRFTISRDNEKNTVYLQMNSLKPEDTAFYYCNAVTFSWDYGYWGQGSQVTVSS”, the “polyreactivity (PSR sort gate)” value is “low polyreactivity”.

For the sequence “QVQLVESGGGLVQAGGSLRLSCAASGSIFLNYAMGWYRQAPGKERELVAAISYRVGRTYYADSVKGRFTISRDNAKNTVYLQMNSLKPEDTAVYYCAADSRSPGHDYWGQGTQVTVSS”, the “polyreactivity (PSR sort gate)” value is reported as “high polyreactivity”.

In the case of “QVQLVESGGGLVQAGGSLRLSCAASGSIFLRNAMGWYRQAPGKERELVASITWNGASTSYADSVKGRFTISRDNAKNTVYLQMNSLKPEDTAVYYCAAVTVQDSNLKYGYWGQGTQLTVSS”, the “polyreactivity (PSR sort gate)” value is recorded as “low polyreactivity”.

For “QVQLVESGGGLVQAGGSLRLSCAASGSIFLRYAMGSYRQAPGKDRELVAAITRSGGSTYYADSVKGRFTISRDNANNTVDLQMNSLKPEDTAVYYCAAYTLVTVGYDYWGQGTQVTVSS”, the “polyreactivity (PSR sort gate)” value is “high polyreactivity”.

“QVQLVESGGGLVQAGGSLRLSCAASGSIFLRYAMGWYRQAPGKERELVAAISLSGGNTYYADSVKGRFTISRDNSKNTVYLQMNSLKPEDTAVYYCAATRTKRKFDYWGQGTQVTVSS”: the “polyreactivity (PSR sort gate)” value was “high polyreactivity”.

“QVQLVESGGGLVQAGGSLRLSCAASGSIFLRYAMGWYRQAPGKERELVAAITTGGGSTYYADSVKGRFTISRDNAKNTVYLQMNRLKPEDPAVYYCAKRAQYHWRGRDDYSYYYWGQGTQVTVSS”: the “polyreactivity (PSR sort gate)” value is reported as “low polyreactivity”.

As for “QVQLVESGGGLVQAGGSLRLSCAASGSIFLRYAMGWYRQAPGKERELVAGITSGGSTNYADSVKGRFTISRDNAKNCVYLQMNSLKPEDTAVYYCNKDLPDWGHEWNGDSWGQGTQVTVSS”, the “polyreactivity (PSR sort gate)” value is “low polyreactivity”.

With “QVQLVESGGGLVQAGGSLRLSCAASGSIFLRYDMGWYRQAPGKERELVAAISRGGSTYYADSVKGRFTISRDNAKNTVYLQLNSLKPEDTAVYSCAARRFGREHGYWGQGTQVTVSS”, the “polyreactivity (PSR sort gate)” value is “high polyreactivity”.

In the case of “QVQLVESGGGLVQAGGSLRLSCAASGSIFLSNPMGWYRQAPGKERELVAAITSGGRTTYADSVKGRFTISRDNAKNTVYLQMNSLKPEDTAVYYCAARQRWYWRGYDYWGQGTQVTVSS”, the “polyreactivity (PSR sort gate)” value was “high polyreactivity”.

Consider “QVQLVESGGGLVQAGGSLRLSCAASGSIFLSYDMGWYRQAPGKERELVAAITQSGGSTYYADSVKGRFTISRDNAKNTVYLQMNSLKPEDTAVYYCAADYGYFPQETYPTYGYYYWGQGTQVTVSS”, for which the “polyreactivity (PSR sort gate)” value is “low polyreactivity”.

Turning to “QVQLVESGGGLVQAGGSLRLSCAASGSIFLWNAMGWYRQAPGKERELVAAISSSGGSTYYADSVKGRFTISRDNAKNTVYLQLNSLKPEDTAVYYCAAVSRSYYNSYNYWGQGTQVTVSS”, the “polyreactivity (PSR sort gate)” value is given as “high polyreactivity”.

Take “QVQLVESGGGLVQAGGSLRLSCAASGSIFLYNAMGWYRQAPGKERELVAAISASGGSTYYADSVKGRFTISRDNAKNTVYLQMNSLKPEDTEVYFCAAQYSDYDGFTWPLPPRYDYWGQGTQVTVSS”: the “polyreactivity (PSR sort gate)” value was “high polyreactivity”.

With “QVQLVESGGGLVQAGGSLRLSCAASGSIFLYNAMGWYRQAPGKERELVAGITFIGGSTYYADSVKGRFTISRDNAKNTVYLQMNSLKPEDTAVYYCNADVAPGIFYGYDSWGQGTQVTVSS”, the “polyreactivity (PSR sort gate)” value is listed as “low polyreactivity”.

With “QVQLVESGGGLVQAGGSLRLSCAASGSIFLYNAMGWYRQAPGKERELVASISSGGITDYADSVKGRFTISRDNAKNTVYLQMNSLKPEDTAVYYCAATYSVYLDYAGGGPLYNHWGQGTQVTVSS”, the “polyreactivity (PSR sort gate)” value is given as “low polyreactivity”.

For “QVQLVESGGGLVQAGGSLRLSCAASGSIFLYNAMGWYRQAPGKERELVASITYGSGSTYYADSVKGRFTISRDNAKNTVYLQMNSLKPEDTAVYYCAATRYYRHGRYDSWGQGTQVTVSS”, the “polyreactivity (PSR sort gate)” value is on record as “high polyreactivity”.

“QVQLVESGGGLVQAGGSLRLSCAASGSIFLYNAMGWYRQAPGKERELVATITYIGGRTYYADSVKGRFTISRDNAKNTVYLQMNSLKPEDSAVYYCAAEYYVISSPSFYEYDYWGQGTQVTVSS”: the “polyreactivity (PSR sort gate)” value is recorded as “low polyreactivity”.

With “QVQLVESGGGLVQAGGSLRLSCAASGSIFLYNDMGWYRQAPGKERELVAAISSGGNTNYADSVTGRFTISRDNAKNTVYLQMNSLKPEDTAVYYCNAAWIRVFQYTLYKYVYWGQGTQVTVSS”, the “polyreactivity (PSR sort gate)” value is “low polyreactivity”.

On to “QVQLVESGGGLVQAGGSLRLSCAASGSIFLYNTKGWYRQAPGKERELVAAISFSGVTTYYADSVKGRFTISRDNAKNTVYLQMNSLKPEDTAVYYCNKYLWKFTNSPLGDYYWGQGTQVTVSS”, for which the “polyreactivity (PSR sort gate)” value was “high polyreactivity”.

For “QVQLVESGGGLVQAGGSLRLSCAASGSIFLYYAMGWYRQAPGKERELVAGIRRGGRTNYADSVKGRFTIPRDNAKNTVYLQMNSLKPEDTAVYYCAKGGYWGQGTQVTVSS”, the “polyreactivity (PSR sort gate)” value is on record as “high polyreactivity”.

As to “QVQLVESGGGLVQAGGSLRLSCAASGSIFNANAMGWYRQAPGNERELVAGIRSGSSTNYADSVKGRFTISRDNAKNTVYLQMNSLKPEDTAVYYCATEGYWVYGFDDEYWGQGTQVTVSS”, the “polyreactivity (PSR sort gate)” value is recorded as “low polyreactivity”.

“QVQLVESGGGLVQAGGSLRLSCAASGSIFNDNVMGWYRPAPGKERELVAGISRSGTRTYYADSVKGRFTISRDNAKNTVYLQMNSLKPEDNAVYYCAAAYGQARRYNGSQYGSWGQGTQVTVSS”: the “polyreactivity (PSR sort gate)” value is “high polyreactivity”.

“QVQLVESGGGLVQAGGSLRLSCAASGSIFNDYAMGWYRQAPGKERELVATISSGGDTYYADSVKGRFTISRDNAKNTVYLQMNSLKPEDTAVYYCAALTGGYVVYTDSYDYWGQGTQVTVSS”: the “polyreactivity (PSR sort gate)” value was “low polyreactivity”.

As for “QVQLVESGGGLVQAGGSLRLSCAASGSIFNGNAMGWYRQAPGKERELVAAISSGDSTNYADSVKGRFTISRDNAKNTVYLQMNSLKPEDTAVYYCNAVHRSIARGGGMDYWGQGTQVTVSS”, the “polyreactivity (PSR sort gate)” value was “low polyreactivity”.

Turning to “QVQLVESGGGLVQAGGSLRLSCAASGSIFNGYAMGWYRQAPGKERELVAAISKRGGSTYYADSVKGRFTISRDNAKNTVYLQMNSLKPEDTAVYYCAARRLFPYGYWGQGTQVTVSS”, the “polyreactivity (PSR sort gate)” value is reported as “high polyreactivity”.

For the sequence “QVQLVESGGGLVQAGGSLRLSCAASGSIFNGYAMGWYRQAPGKERELVAAISRRGGSTYYADSVKGRFTISRVNAKNTVYLQMISLKPEDTAVYYCAADPRRPLSPQLSDYWGQGTQVTVSS”, the “polyreactivity (PSR sort gate)” value is reported as “high polyreactivity”.

In the case of “QVQLVESGGGLVQAGGSLRLSCAASGSIFNGYDMGWYRQAPWKERELVAAISLSGDSTYYADSVKGRFTISRDNAKNTVYLQMNSLKPEDTAVYYCAKGTISSYSPYWYYDYSDYEYWGQGTQVTVSS”, the “polyreactivity (PSR sort gate)” value was “low polyreactivity”.

As for “QVQLVESGGGLVQAGGSLRLSCAASGSIFNGYTMGWYRQAPRKERELVAAISSRGGITYYADSVKGRFTISRDNAKNTVYLQMNSLKPEDTAVYYCAKTSGYYQAGSLKYGYWGQGTQVTVSS”, the “polyreactivity (PSR sort gate)” value was “high polyreactivity”.

Regarding “QVQLVESGGGLVQAGGSLRLSCAASGSIFNIYAMGWYRQAPGKESELVAAISYSGGSTYYADSVKGRFTISRDNAKNTVYLQMNSLKPEDTAVYYCNADGYYFLISNANPLGYWGQGTQVTVSS”, the “polyreactivity (PSR sort gate)” value was “low polyreactivity”.

Take “QVQLVESGGGLVQAGGSLRLSCAASGSIFNIYARGWYRQAPGKERELVATITGIADSTYYADSVKGRFTISRDNAKNTVYLQMNSLKPEDTAVYYCNADPSGVFFYSLEFDYWGQGTQVTVSS”: the “polyreactivity (PSR sort gate)” value is listed as “low polyreactivity”.

Regarding “QVQLVESGGGLVQAGGSLRLSCAASGSIFNKYAMGWYRQAPGKERELVAAISVSGTRTYYADSVKGRFTISRDNAKNTVYLQMNSLKPEDSAVYYCATKFFRTAYEYWGQGTQVTVSS”, the “polyreactivity (PSR sort gate)” value is “high polyreactivity”.

“QVQLVESGGGLVQAGGSLRLSCAASGSIFNLNAMGWYRQAPGTEREFVAGITYSAGRTYYADSVKGRFTISRDNAKNTVYLQMNSLKPVDTAVYYCAARIYSKFTSYGILDSWGQGTQVTVSS”: the “polyreactivity (PSR sort gate)” value is “high polyreactivity”.

As for “QVQLVESGGGLVQAGGSLRLSCAASGSIFNLYALGWYRKAPGKERELVAAIRWDGGSTYYADSVKGRFTISRDNAKNTVYLQMNSLKPEDTAVYYCAAETVYFRLLILDYWGQGTQVTVSS”, the “polyreactivity (PSR sort gate)” value is listed as “high polyreactivity”.

Turning to “QVQLVESGGGLVQAGGSLRLSCAASGSIFNLYTMGWYRQAPGKEMELVAVITGGGSTYYADSVKGRFTISRDNAKNTVYLQMNSLKPADTAVYYCAAKGPFYKSSRTGDYWGQGTQVTVSS”, the “polyreactivity (PSR sort gate)” value is recorded as “low polyreactivity”.

In the case of “QVQLVESGGGLVQAGGSLRLSCAASGSIFNPYAMGWYRQAPGKQRELVAAISYTGGRTYYADSVKGRFTISRDNAQNTVYLQMNSLKPEDTAVYYCIADYIYSFYWSFYEYDYWGQGTQVTVSS”, the “polyreactivity (PSR sort gate)” value is listed as “high polyreactivity”.

Turning to “QVQLVESGGGLVQAGGSLRLSCAASGSIFNPYDMGWYRQAPGKERELVAAIDWSGGSTYYADSVKGRFTISRDNAKNTVYLQMNSLKPEDTAVYYCNAESYQDTLFGADNDYDYWGQGTLVTVSS”, the “polyreactivity (PSR sort gate)” value is on record as “low polyreactivity”.
